Experimental findings from patent publication US7645449B2, “Sensitizing cells for apoptosis by selectively blocking cytokines” (priority 2003, dated 2010) are described below.

The subject of experiment [1] is RT112 bladder carcinoma cells. In words: MTS viability of RT112 cells: chemotherapy- and anti-CD95-induced apoptosis. The experiment is classed as cell-based, human. The text has this: Anticancer treatment using cytotoxic drugs mediates cell death by activating the intracellular apoptotic program. To determine whether IL-4 was able to inhibit apoptosis induced by chemotherapeutic drugs, bladder tumor cells (RT112) were pretreated for two days with different concentrations of IL-4 and subsequently exposed to camptothecin or etoposide.
Human LNCAP prostate cancer cell line and human MDA-MB-231 breast cancer cell line were obtained from the American Type Culture Collection (ATCC, Manassas, Va.). Human RT112 bladder carcinoma cell line was kindly provided by Dr. M. Cippitelli (Regina Elena Cancer Institute, Rome, Italy). Cells were grown in RPMI 1640 (Life Technologies Inc., Grand Island, N.Y.) containing 10% heat inactivated fetal bovine serum supplemented with L-Glutamine 2 mM and 100 units/ml Penicillin-Streptomycin. Cells were kept in 5% CO2 atmosphere and routinely passaged when 80-85% confluent. […] Camptothecin, cisplatin, daunorubicine, etoposide and vincristine were purchased from Sigma-Aldrich Inc. (Sain Louis, Mo.) and resuspended in DMSO (cisplatin, camptothecin and etoposide) or in H2O (daunorubicine and vincristine). Anti-CD95 agonistic antibody (clone CH11) was purchased from Upstate Biotechnology (Lake Placid, N.Y.). Monoclonal antibody anti-Bcl-XL (H5, mouse) was from Santa Cruz (Santa Cruz, Calif.), antibody anti-cFlip/FLAME-1 (NF6, mouse) was kindly provided by Dr. P.H. Krammer (German Cancer Reseach Center, Heidelberg, Germany). Antibody anti β-actin (goat) was purchased from Oncogene (Boston, Mass.):
Cell viability was determined using the CellTiter 96® AQueous One Solution Cell Proliferation Assay (Promega, Madison, Wis.), according to the manufacturer's instructions. The assay is based on reduction of 3-(4,5-dimethylthiazol-2-yl)-5-(3-carboxymethoxyphenyl)-2-(4-sulfophenyl)-2H-tetrazolium, inner salt (MTS) to a colored formazan product that is measured spectrophotometrically. Cells were seeded in 96-well tissue culture plates and incubated at 37° C. in a 5% CO2 incubator overnight. […] After two days cells were treated for 10 hours with chemotherapeutic drugs or anti-CD95, then 20 μl of MTS were added to each well. After 3 hours of incubation at 37° C. with the MTS reagent, the plates were read on a Multilabel Counter (Victor2, Wallac, Perkin-Ehmer Inc., Norwalk, Conn.) and dye absorbance was measured at 490 nm.
The percentage of apoptotic cells was derived from the percentage of viable cells that was directly calculated from the values of the MTS assay. The percentage of protection from apoptosis was determined as: % protection=100%−X
X was calculated with the formule: (C1−C2):100=(S1−S2):X where:
C1 is the viability of untreated control cells, C2 is the viability of control cells treated with the apoptotic stimulus, S1 and S2 are the viability of cells preincubated with cytoldnes or transduced with anti-apoptotic genes, untreated (S1) or treated (S2) with the apoptotic stimuli.
(A) Percentage of viable RT112 bladder carcinoma cells pre-treated for two days with increasing doses of IL-4 (5, 10, 20, 50 and 100 ng/ml) which were maintained also during incubation with chemotherapeutic drugs and exposed to 50 ng/ml camptothecin of 7 μM etoposide. […] Cell viability was determined after 24 hours using the MTS assay as described in Materials and Methods and the percentage of protection from cell death was calculated as described in Materials and Methods. The results shown are the mean ±s.d. of four independent experiments.
When the cytokine is removed by washing the percentage of protection is downmodulated.
(E) IL-4 prevents anti CD95-induced apoptosis. […] Successively, cells were incubated with 30 ng/ml anti-CD95 agonistic antibody in standard medium, Control cells (−) were stimulated with anti-CD95 in the absence of cytokine pre-treatment. The results shown are the mean ±s.d. of four independent experiments.

Another experiment has as its system normal thyrocytes. In words: Cytokine protection of normal thyrocytes from chemotherapy-induced apoptosis. The class given is cell-based, human. The conditions noted are these: 48 h pre-treatment, rhIL-4 20 ng/ml or rhIL-10 40 ng/ml, then drugs for 12 h. The method, then:
Thyroid cell purification and culture. Thyroid tissues from normal, PTC, FTC and UTC were digested for 2 hours with collagenase (1.5 mg/ml) (Gibco BRL, Grand Island, N.Y.) and hyaluronidase (20 μg/ml) (Sigma Chemical Co., St. Louis, Mo.) in DMEM. Thyrocytes were purified from the digested tissues by hematopoietic cell depletion with anti-CD45-coupled beads (Dynal, Wirral Merseyside, U.K.) and 12 hours of flask adherence, which allowed removal of other cells. After additional 12 hours of culture, thyroid cells were allowed to grow in monolayer for the immunocytochemistry or detached with trypsin+EDTA following exposure to cytokines or chemotherapeutic agents for functional and protein analyses. […]
Cell death quantitation. Apoptotic events of neoplastic thyrocytes were evaluated by DNA staining and flow cytometry analysis. […] The percentage of hypodiploid nuclei was evaluated as previously described. […] The number of viable cells was detected by CellTiter Aqueous Assay Kit (Promega Corporation, WI, USA) adding 20 μl of solution reagent directly to culture wells, incubating for 1 hours at 37° C. and recording absorbance at 490 nm. […]

B1: IL-4: human recombinant IL-4 (protein, UniProt P05112 25-153, looked up)
Interleukin-4: HKCDITLQEIIKTLNSLTEQKTLCTELTVTDIFAASKNTTEKETFCRAATVLRQFYSHHEKDTRCLGATAQQFHRHKQLIRFLKRLDRNLWGLAGLNSCPVKEANQSTLENFLERLKTIMREKYSKCSS
B1: in experiment [1] (20 ng/ml IL-4 for two days, camptothecin or etoposide, viability after 24 hours), the “protection from chemotherapy-induced apoptosis at 20 ng/ml” value is recorded as “able to protect cells from chemotherapy-induced apoptosis”. In experiment [1] (7 μM etoposide, IL-4 maintained in the culture medium), the “time course of protection from etoposide-induced cell death” value is “protected from etoposide-induced cell death from day 2 to day 4”. Further, in experiment [1] (24 hours of IL-4 pretreatment), the “protective effect after shorter pretreatment” value is reported as “already consistent”. In addition, in experiment [1] (IL-4 higher than 20 ng/ml (50, 100 ng/ml)), the “protection from chemotherapy-induced apoptosis at higher concentrations” value is reported as “protective effect is maintained”. Further, the “protection of RT112 cells from drug-induced death” value in experiment [1] (pretreated two days with IL-4, then camptothecin or etoposide) was “significantly protected from drug-induced death”. Moreover, the “CD95-induced apoptosis in bladder cancer cells” value in experiment [1] (two days IL-4 pretreatment, 30 ng/ml anti-CD95 agonistic antibody) was “significantly inhibit CD95-induced apoptosis”. Also, the “prevention of death of normal thyrocytes exposed to cisplatinum, doxorubicin and taxol” value in the experiment with normal thyrocytes is on record as “drastically prevented death”.
